Experiments:
[1] = system: specific serum IgG antibodies in sera from patients diagnosed with a H. pylori infection; test: Quantitative Western-blot analysis (integrated optical density) of patient sera on H. pylori whole cell lysate antigens; format: binding, human; conditions: for average titer of specific antibodies / reduction of average titer: average of all strains (FIG. 4)
[2] = system: sera from H. pylori infected patients; test: Immunoblot analysis of whole cell lysates with sera from H. pylori infected patients; format: binding, human; conditions: one serum of an infected patient (HS#0 12, table 1)
Description: The protein content of the bacterial lysates was determined by the method according to Lowry (Lowry et al., 1951) with bovine serum albumin as a standard. The lysates were dried in a speedVac concentrator. Afterwards the pellets were suspended in gel sample buffer (4% SDS, 12% glycerin, 4% β-mercaptoethanol, 0.01% Serva Blue G250 in 50 mM Tris/HCl pH 6.8) and boiled for 10 min. H. pylori and C. jejuni lysates were separated on 1.0 or 1.5 mm 7.5-16.5% SDS-tricine gradient gels (Schaegger and v. Jagow, 1987). Therefore a 7.5% and a 16.5% acrylamide solution for the separating gel and a 4% acrylamide solution for the stacking gel were prepared according to the scheme presented in table 3. Using a gradient-mixer the gel was poured slowly, but with continuous flow between the glass plates of the gel-sandwich. The separating gel was overlaid with deonized H2O and allowed to polymerize for 1 hr. Afterwards the water was removed, APS and TEMED was added to the stacking gel solution that was poured on top of the separating gel. A comb with the appropriate number of sample pockets was inserted and removed after polymerisation for 1 hr. The gel-sandwich was placed in an electrophoresis chamber half filled with bottom running buffer (0.2 M Tris-HCI, pH 8.9). […] The protein pattern after electrophoresis was determined by Silver staining (Heukeshoven, 1985) or Coomassie blue staining. […]

[3] = antigens from Hp02 (FIG. 3), sera 3 months post therapy
[4] = antigens from Hp02 (FIG. 3), sera 5 months post therapy
[5] = antigens from Hp02 (FIG. 3), sera before therapy, set as 100%
[6] = antigens from Hp08 (FIG. 2), sera 3 months post therapy
[7] = antigens from Hp08 (FIG. 2), sera 5 months post therapy
[8] = antigens from Hp08 (FIG. 2), sera before therapy, set as 100%
[9] = antigens from Hp504, first experiment (FIG. 1A), sera 3 months post therapy
[10] = antigens from Hp504, first experiment (FIG. 1A), sera 5 months post therapy
[11] = antigens from Hp504, first experiment (FIG. 1A), sera of 9 patients before therapy, set as 100%
[12] = antigens from Hp504, second experiment (FIG. 1B), sera 3 months post therapy
[13] = antigens from Hp504, second experiment (FIG. 1B), sera 5 months post therapy
[14] = antigens from Hp504, second experiment (FIG. 1B), sera before therapy, set as 100%
[15] = 3 months after eradication treatment
[16] = 5 months after end of treatment

| Molecule | % IOD [1, 3] | % IOD [1, 4] | % IOD [1, 5] | % IOD [1, 6] | % IOD [1, 7] | % IOD [1, 8] | % IOD [1, 9] | % IOD [1, 10] | % IOD [1, 11] | % IOD [1, 12] | % IOD [1, 13] | % IOD [1, 14] | average titer of specific antibodies [1, 15] | reduction of average titer [1, 15] | average titer of specific antibodies [1, 16] | reduction of average titer [1, 16] | reaction with serum HS#0 12 [2] |
| --- | --- | --- | --- | --- | --- | --- | --- | --- | --- | --- | --- | --- | --- | --- | --- | --- | --- |
| HP0596 a hypothetical protein (protein, 23 kd H. pylori antigen band in whole cell lysate, identified as HP0596) MLEKSFLKSKQLFLCGLGVLMLQACTCPNTSQRNSFLQDVPYWMLQNRSEYITQGVDSSHIVDGKKTEEIEKIATKRATIRVAQNIVHKLKEAYLSKTNRIKQKITNEMFIQMTQPIYDSLMNVDRLGIYINPNNEEVFALVRARGFDKDALSEGLHKMSLDNQAVSILVAKVEEIFKDSVNYGDVKVPIAM | 35.86 +/− 11.88% | 13.51 +/− 5.02% | 100% | 23.05 +/− 7.53% | 11.36 +/− 4.45% | 100% | 33.88 +/− 10.59% | 23.81 +/− 7.83% | 100% | 52.37 +/− 12.72% | 34.77 +/− 9.61% | 100% | 36.29% | 63.71% | 28.87% | 79.13% |  |
| HpaA-neuraminyl-lactose-hemagglutinin precursor (protein, 32 kd H. pylori antigen band in whole cell lysate, identified as HpaA) MKKGSLAIVLGSLLASGAFYTALADGMPAKQQHNNTGESVELHFHYPIKGKQEPKNSHLVVLIEPKIEINKVIPESYQKEFEKSLFLQLSSFLERKGYSVSQFKDASEIPQDIKEKALLVLRMDGNVAILEDIVEESDALSEEKVIDMSSGYLNLNFVEPKSEDIIHSFGIDVSKIKAVIERVELRRTNSGGFVPKTFVHRIKETDHDQAIRKIMNQAYHKVMVHITKELSKKHMEHYEKVSSEMKKRK | 32.30 +/− 13.97% | 8.70 +/− 3.2% | 100% | 48.11 +/− 8.15% | 21.06 +/− 8.01% | 100% | 41.61 +/− 9.25% | 15.15 +/− 4.20% | 100% | 32.15% | 27.2% | 100% | 38.5% | 61.5% | 18.03% | 81.97% |  |
| Omp18-peptido-glycan associated lipoprotein precursor (protein, 30 kd H. pylori antigen band in whole cell lysate, identified as Omp18) MKRSSVFSFLVAFLLVAGCSHKMDNKTVAGDVSAKTVQTAPVTTEPAPEKEEPKQEPAPVVEEKPAVESGTIIASIYFDFDKYEIKESDQETLDEIVQKAKENHMQVLLEGNTDEFGSSEYNQALGVKRTLSVKNALVIKGVEKDMIKTISFGETKPKCAQKTRECYKENRRVDVKLMK | 50.71 +/− 11.48% | 21.56 +/− 6.44% | 100% | 62.53 +/− 10.32% | 40.77 +/− 4.45% | 100% | 32.08 +/− 6.48% | 20.71 +/− 12.72% | 100% | 53.58% | 41.28% | 100% | 49.73% | 50.27% | 31.08% | 68.92% |  |
| RPL7/L12 50S ribosomal protein L7/L12 (protein, 15 kd H. pylori antigen band in whole cell lysate, identified as RPL7/L12) MNISVNPYLMAVVFVVFVLLLWAMNVWVYRPLLAFMDNRQAEIKDSLAKIKTDNAQSVEIGHQIEALLKEAAEKRREIIAEAIQKATESYDAVIKQKENELNQEFEAFAKQLQNEKQALKEQLQAQMPVFEDELNKRVAMGLGS | 36.29 +/− 14.99% | 11.39 +/− 4.27% | 100% | 28.60 +/− 13.85% | 9.96 +/− 4.99% | 100% | 37.86 +/− 8.98% | 15.37 +/− 6.68% | 100% | 46.17 +/− 16.87% | 19.77 +/− 11.11% | 100% | 31.61% | 68.39% | 14.12% | 85.88% | did not react |
